# Data: patent publication US20210292396A1
# Legend:
# Assay in all cases: cell-based or functional assay
# [1] = target: Env of HIV isolate 0077.v1.c16 (clade C) (HIV)
# [2] = target: Env of HIV isolate 191821.E6.1 (clade D) (HIV)
# [3] = target: Env of HIV isolate 235-47 (clade AG) (HIV)
# [4] = target: Env of HIV isolate 25711-2.4 (clade C) (HIV)
# [5] = target: Env of HIV isolate 3337.v2.c6 (clade CD) (HIV)
# [6] = target: Env of HIV isolate 3365.v2.c20 (clade A) (HIV)
# [7] = target: Env of HIV isolate 3718.v3.c11 (clade A) (HIV)
# [8] = target: Env of HIV isolate 398-F1.F6.20 (clade A) (HIV)
# [9] = target: Env of HIV isolate 45_01dG5 (clade B) (HIV)
# [10] = target: Env of HIV isolate 57128.vrc15 (clade D) (HIV)
# [11] = target: Env of HIV isolate 6631.v3.c10 (clade C) (HIV)
# [12] = target: Env of HIV isolate A07412M1.vrc12 (clade D) (HIV)
# [13] = target: Env of HIV isolate C2101.c1 (clade AE) (HIV)
# [14] = target: Env of HIV isolate CAP244.D3 (clade C) (HIV)
# [15] = target: Env of HIV isolate CAP256.206.C9 (clade C) (HIV)
# [16] = target: Env of HIV isolate CH181.12 (clade BC) (HIV)
# [17] = target: Env of HIV isolate CNE12 (clade B) (HIV)
# [18] = target: Env of HIV isolate CNE31 (clade C) (HIV)
# [19] = target: Env of HIV isolate CNE5 (clade AE) (HIV)
# [20] = target: Env of HIV isolate CNE55 (clade AE) (HIV)
# [21] = target: Env of HIV isolate DJ263.8 (clade AG) (HIV)
# [22] = target: Env of HIV isolate DU151.02 (clade C) (HIV)
# [23] = target: Env of HIV isolate JRCSF.JB (clade B) (HIV)
# [24] = target: Env of HIV isolate M02138 (clade AE) (HIV)
# [25] = target: Env of HIV isolate P0402.c2.11 (clade G) (HIV)
# [26] = target: Env of HIV isolate Q769.h5 (clade A) (HIV)
# [27] = target: Env of HIV isolate QH209.14M.A2 (clade A) (HIV)
# [28] = target: Env of HIV isolate SC422.8 (clade B) (HIV)
# [29] = target: Env of HIV isolate SF162.LS (clade B) (HIV)
# [30] = target: Env of HIV isolate T257-31 (clade AG) (HIV)
# [31] = target: Env of HIV isolate T278-50 (clade AG) (HIV)
# [32] = target: Env of HIV isolate THRO.18 (clade B) (HIV)
# [33] = target: Env of HIV isolate UG021.16 (clade D) (HIV)
# [34] = target: Env of HIV isolate UG037.8 (clade A) (HIV)
# [35] = target: Env of HIV isolate X2278.C2.B6 (clade B) (HIV)
# [36] = target: Env of HIV isolate ZM176.66 (clade C) (HIV)
# [37] = target: Env of HIV isolate ZM197.7 (clade C) (HIV)
# [38] = target: Env of HIV isolate ZM249.1 (clade C) (HIV)
# [39] = target: Envelope protein of SIVmac251.30.SG3 (clade NA)
# [40] = target: HIV Env of isolate 3016.v5.c45 (HIV)
# [41] = target: HIV Env of isolate 426c (HIV)
# [42] = target: HIV Env of isolate 96ZM651.02 (HIV)
# [43] = target: HIV Env of isolate CH070.1 (HIV)
# [44] = target: HIV Env of isolate CNE58 (HIV)
# [45] = target: HIV Env of isolate Ce1176.A3 (HIV)
# [46] = target: HIV Env of isolate SO18.18 (HIV)
# [47] = target: HIV Env of isolate UG024.2 (HIV)
# [48] = target: HIV Env of isolate X1632.S2.B10 (HIV)
# [49] = target: HIV Env of isolate ZA012.29 (HIV)
# [50] = target: HIV Env of isolate ZM135.10a (HIV)
binder,measurement,setting,value
"ePGT121.18 (ePGT121.18.H1 VH and ePGT121.17.L1 VL) (antibody, V domains shown) VH: QMQLQESGPGLVKPGETLSLTCSVSGASISSSYWSWLRETPGKGLEWIGYTHHSGDTNYAPSLKSRVHLGLHPSKNQVSLSLTSVTAADTAVYYCARTLHGRRIYGVVAFNEYYTYFYWPTWGKGTQVTVSS VL: SDISVAPGETVRITCGGESIGSRAVQWYQHRPGQAPRLIIYNNQDRPPGIPERFSGSPDIDFGTTATLTISNVEAGDEATYYCHIWDSRRPTNWELGPGTTLTVL","IC50, pseudovirus neutralization",[1],> 50 µg/mL
same,"IC50, pseudovirus neutralization",[2],0.015 µg/mL
same,"IC50, pseudovirus neutralization",[3],0.006 µg/mL
same,"IC50, pseudovirus neutralization",[4],0.002 µg/mL
same,"IC50, pseudovirus neutralization",[5],0.232 µg/mL
same,"IC50, pseudovirus neutralization",[6],0.004 µg/mL
same,"IC50, pseudovirus neutralization",[7],0.267 µg/mL
same,"IC50, pseudovirus neutralization",[8],0.003 µg/mL
same,"IC50, pseudovirus neutralization",[9],0.001 µg/mL
same,"IC50, pseudovirus neutralization",[10],0.004 µg/mL
same,"IC50, pseudovirus neutralization",[11],0.01 µg/mL
same,"IC50, pseudovirus neutralization",[12],0.003 µg/mL
same,"IC50, pseudovirus neutralization",[13],> 50 µg/mL
same,"IC50, pseudovirus neutralization",[14],21.2 µg/mL
same,"IC50, pseudovirus neutralization",[15],0.001 µg/mL
same,"IC50, pseudovirus neutralization",[16],0.001 µg/mL
same,"IC50, pseudovirus neutralization",[17],0.002 µg/mL
same,"IC50, pseudovirus neutralization",[18],0.015 µg/mL
same,"IC50, pseudovirus neutralization",[19],7.18 µg/mL
same,"IC50, pseudovirus neutralization",[20],> 50 µg/mL
same,"IC50, pseudovirus neutralization",[21],0.002 µg/mL
same,"IC50, pseudovirus neutralization",[22],0.001 µg/mL
same,"IC50, pseudovirus neutralization",[23],0.003 µg/mL
same,"IC50, pseudovirus neutralization",[24],> 50 µg/mL
same,"IC50, pseudovirus neutralization",[25],0.002 µg/mL
same,"IC50, pseudovirus neutralization",[26],> 50 µg/mL
same,"IC50, pseudovirus neutralization",[27],> 50 µg/mL
same,"IC50, pseudovirus neutralization",[28],0.005 µg/mL
same,"IC50, pseudovirus neutralization",[29],0.002 µg/mL
same,"IC50, pseudovirus neutralization",[30],> 50 µg/mL
same,"IC50, pseudovirus neutralization",[31],1.17 µg/mL
same,"IC50, pseudovirus neutralization",[32],> 50 µg/mL
same,"IC50, pseudovirus neutralization",[33],0.006 µg/mL
same,"IC50, pseudovirus neutralization",[34],0.002 µg/mL
same,"IC50, pseudovirus neutralization",[35],0.001 µg/mL
same,"IC50, pseudovirus neutralization",[36],0.017 µg/mL
same,"IC50, pseudovirus neutralization",[37],> 50 µg/mL
same,"IC50, pseudovirus neutralization",[38],0.134 µg/mL
same,"IC50, pseudovirus neutralization",[39],> 50 µg/mL
same,"IC80, pseudovirus neutralization (M1)",[40],> 50 µg/mL
same,"IC80, pseudovirus neutralization (M2)",[40],> 50 µg/mL
same,"IC80, pseudovirus neutralization (M1)",[41],0.302 µg/mL
same,"IC80, pseudovirus neutralization (M2)",[41],0.337 µg/mL
same,"IC80, pseudovirus neutralization (M1)",[42],0.002 µg/mL
same,"IC80, pseudovirus neutralization (M2)",[42],0.003 µg/mL
same,"IC80, pseudovirus neutralization (M1)",[43],0.002 µg/mL
same,"IC80, pseudovirus neutralization (M2)",[43],0.002 µg/mL
same,"IC80, pseudovirus neutralization (M1)",[44],0.039 µg/mL
same,"IC80, pseudovirus neutralization (M2)",[44],0.033 µg/mL
same,"IC80, pseudovirus neutralization (M1)",[45],0.006 µg/mL
same,"IC80, pseudovirus neutralization (M2)",[45],0.006 µg/mL
same,"IC80, pseudovirus neutralization (M1)",[46],0.005 µg/mL
same,"IC80, pseudovirus neutralization (M2)",[46],0.007 µg/mL
same,"IC80, pseudovirus neutralization (M1)",[47],> 50 µg/mL
same,"IC80, pseudovirus neutralization (M2)",[47],> 50 µg/mL
same,"IC80, pseudovirus neutralization (M1)",[48],> 50 µg/mL
same,"IC80, pseudovirus neutralization (M2)",[48],> 50 µg/mL
same,"IC80, pseudovirus neutralization (M1)",[49],0.006 µg/mL
same,"IC80, pseudovirus neutralization (M2)",[49],0.007 µg/mL
same,"IC80, pseudovirus neutralization (M1)",[50],0.14 µg/mL
same,"IC80, pseudovirus neutralization (M2)",[50],0.188 µg/mL
"ePGT121.15.H2.L1 (antibody, V domains shown) VH: QMQLQESGPGLVKPGETLSLTCSVSGASISSSYWSWLRETPGKGLEWIGYTHHSGDTNYAPSLKSRVHLGLHPSKNQVSLSLTSVTAADTAVYYCARTLHGRRIYGVVAFNEWFTYFYWEVWGKGTQVTVSS VL: SDISVAPGETVRISCGGESIGSRAVQWYQHRAGQAPKLIIYNNQDRPPGIPERFSGSPDIDFGTTATLTITNVEAGDEATYYCHIWDSRRPTNWVFGGGTTLTVL",neutralization (Table 6 value),[44],0.00464
"ePGT121.18.17 (ePGT121.18.H17 VH and ePGT121.17.L1 VL) (antibody, V domains shown) VH: QMQLQESGPGLVKPGETLSLTCSVSGASISSSYWSWLRETPGKGLEWIGYTHHSGDTNYAPSLKSRVTIGLDPSKNQVSLSLTSVTAADTAVYYCARTLHGRRIYGVVAFNEYYTYFYWPTWGKGTQVTVSS VL: SDISVAPGETVRITCGGESIGSRAVQWYQHRPGQAPRLIIYNNQDRPPGIPERFSGSPDIDFGTTATLTISNVEAGDEATYYCHIWDSRRPTNWELGPGTTLTVL","IC50, pseudovirus neutralization",[1],> 50 µg/mL
same,"IC50, pseudovirus neutralization",[2],0.104 µg/mL
same,"IC50, pseudovirus neutralization",[3],0.022 µg/mL
same,"IC50, pseudovirus neutralization",[4],0.006 µg/mL
same,"IC50, pseudovirus neutralization",[5],0.363 µg/mL
same,"IC50, pseudovirus neutralization",[6],0.007 µg/mL
same,"IC50, pseudovirus neutralization",[7],0.957 µg/mL
same,"IC50, pseudovirus neutralization",[8],0.005 µg/mL
same,"IC50, pseudovirus neutralization",[9],0.003 µg/mL
same,"IC50, pseudovirus neutralization",[10],0.012 µg/mL
same,"IC50, pseudovirus neutralization",[11],0.063 µg/mL
same,"IC50, pseudovirus neutralization",[12],0.004 µg/mL
same,"IC50, pseudovirus neutralization",[13],> 50 µg/mL
same,"IC50, pseudovirus neutralization",[14],> 50 µg/mL
same,"IC50, pseudovirus neutralization",[15],0.004 µg/mL
same,"IC50, pseudovirus neutralization",[16],0.004 µg/mL
same,"IC50, pseudovirus neutralization",[17],0.004 µg/mL
same,"IC50, pseudovirus neutralization",[18],0.089 µg/mL
same,"IC50, pseudovirus neutralization",[19],47 µg/mL
same,"IC50, pseudovirus neutralization",[20],> 50 µg/mL
same,"IC50, pseudovirus neutralization",[21],0.014 µg/mL
same,"IC50, pseudovirus neutralization",[22],0.003 µg/mL
same,"IC50, pseudovirus neutralization",[23],0.007 µg/mL
same,"IC50, pseudovirus neutralization",[24],> 50 µg/mL
same,"IC50, pseudovirus neutralization",[25],0.004 µg/mL
same,"IC50, pseudovirus neutralization",[26],> 50 µg/mL
same,"IC50, pseudovirus neutralization",[27],> 50 µg/mL
same,"IC50, pseudovirus neutralization",[28],0.016 µg/mL
same,"IC50, pseudovirus neutralization",[29],0.003 µg/mL
same,"IC50, pseudovirus neutralization",[30],> 50 µg/mL
same,"IC50, pseudovirus neutralization",[31],1.2 µg/mL
same,"IC50, pseudovirus neutralization",[32],> 50 µg/mL
same,"IC50, pseudovirus neutralization",[33],0.013 µg/mL
same,"IC50, pseudovirus neutralization",[34],0.009 µg/mL
same,"IC50, pseudovirus neutralization",[35],0.003 µg/mL
same,"IC50, pseudovirus neutralization",[36],0.122 µg/mL
same,"IC50, pseudovirus neutralization",[37],> 50 µg/mL
same,"IC50, pseudovirus neutralization",[38],0.332 µg/mL
same,"IC50, pseudovirus neutralization",[39],> 50 µg/mL
same,"IC80, pseudovirus neutralization",[40],> 50 µg/mL
same,"IC80, pseudovirus neutralization",[41],1 µg/mL
same,"IC80, pseudovirus neutralization",[42],0.006 µg/mL
same,"IC80, pseudovirus neutralization",[43],0.007 µg/mL
same,"IC80, pseudovirus neutralization",[44],0.195 µg/mL
same,"IC80, pseudovirus neutralization",[45],0.017 µg/mL
same,"IC80, pseudovirus neutralization",[46],0.011 µg/mL
same,"IC80, pseudovirus neutralization",[47],> 50 µg/mL
same,"IC80, pseudovirus neutralization",[48],> 50 µg/mL
same,"IC80, pseudovirus neutralization",[49],0.014 µg/mL
same,"IC80, pseudovirus neutralization",[50],0.78 µg/mL
